Test results: ChEMBL document CHEMBL1212722, “Designer enzymes for glycosphingolipid synthesis by directed evolution” (Nat Chem Biol, 2009)
Positions count from the first letter of the chain named. Numbers in names are those of the source.

Columns and labels:
[1] = substrate: CC(=O)N[C@H]1[C@H](O[C@@H]2[C@H](O[C@]3(C(=O)O)C[C@H](O)[C@@H](NC(C)=O)[C@H]([C@@H](O)[C@@H](O)CO)O3)[C@@H](O)[C@H](O[C@H]3[C@H](O)[C@@H](O)[C@@H](F)O[C@@H]3CO)O[C@@H]2CO)O[C@H](CO)[C@H](O)[C@@H]1O[C@@H]1O[C@H](CO)[C@H](O)[C@H](O)[C@H]1O; test: (§1) Activity of Rhodococcus sp. M777 Endoglycoceramidase 2 V269I G370R mutant
[2] = substrate: CCCCCCCCCCCCC/C=C/[C@@H](O)[C@@H](N)CO; test: as §1
[3] = substrate: CC(=O)N[C@H]1[C@H](O[C@@H]2[C@H](O[C@]3(C(=O)O)C[C@H](O)[C@@H](NC(C)=O)[C@H]([C@@H](O)[C@@H](O)CO)O3)[C@@H](O)[C@H](O[C@H]3[C@H](O)[C@@H](O)[C@@H](F)O[C@@H]3CO)O[C@@H]2CO)O[C@H](CO)[C@H](O)[C@@H]1O[C@@H]1O[C@H](CO)[C@H](O)[C@H](O)[C@H]1O; test: (§2) Ratio of Kcat to Km of Activity of Rhodococcus sp. M777 Endoglycoceramidase 2 V269I G370R mutant
[4] = substrate: CCCCCCCCCCCCC/C=C/[C@@H](O)[C@@H](N)CO; test: as §2
[5] = substrate: CC(=O)N[C@H]1[C@H](O[C@@H]2[C@H](O[C@]3(C(=O)O)C[C@H](O)[C@@H](NC(C)=O)[C@H]([C@@H](O)[C@@H](O)CO)O3)[C@@H](O)[C@H](O[C@H]3[C@H](O)[C@@H](O)[C@@H](F)O[C@@H]3CO)O[C@@H]2CO)O[C@H](CO)[C@H](O)[C@@H]1O[C@@H]1O[C@H](CO)[C@H](O)[C@H](O)[C@H]1O; test: (§3) Activity of Rhodococcus sp. M777 Endoglycoceramidase 2 P394S mutant
[6] = substrate: CCCCCCCCCCCCC/C=C/[C@@H](O)[C@@H](N)CO; test: as §3
[7] = substrate: CC(=O)N[C@H]1[C@H](O[C@@H]2[C@H](O[C@]3(C(=O)O)C[C@H](O)[C@@H](NC(C)=O)[C@H]([C@@H](O)[C@@H](O)CO)O3)[C@@H](O)[C@H](O[C@H]3[C@H](O)[C@@H](O)[C@@H](F)O[C@@H]3CO)O[C@@H]2CO)O[C@H](CO)[C@H](O)[C@@H]1O[C@@H]1O[C@H](CO)[C@H](O)[C@H](O)[C@H]1O; test: (§4) Ratio of Kcat to Km of Activity of Rhodococcus sp. M777 Endoglycoceramidase 2 P394S mutant
[8] = substrate: CCCCCCCCCCCCC/C=C/[C@@H](O)[C@@H](N)CO; test: as §4
[9] = substrate: CC(=O)N[C@H]1[C@H](O[C@@H]2[C@H](O[C@]3(C(=O)O)C[C@H](O)[C@@H](NC(C)=O)[C@H]([C@@H](O)[C@@H](O)CO)O3)[C@@H](O)[C@H](O[C@H]3[C@H](O)[C@@H](O)[C@@H](F)O[C@@H]3CO)O[C@@H]2CO)O[C@H](CO)[C@H](O)[C@@H]1O[C@@H]1O[C@H](CO)[C@H](O)[C@H](O)[C@H]1O; test: (§5) Activity of Rhodococcus sp. M777 Endoglycoceramidase 2 V269I mutant
[10] = substrate: CCCCCCCCCCCCC/C=C/[C@@H](O)[C@@H](N)CO; test: as §5
[11] = substrate: CC(=O)N[C@H]1[C@H](O[C@@H]2[C@H](O[C@]3(C(=O)O)C[C@H](O)[C@@H](NC(C)=O)[C@H]([C@@H](O)[C@@H](O)CO)O3)[C@@H](O)[C@H](O[C@H]3[C@H](O)[C@@H](O)[C@@H](F)O[C@@H]3CO)O[C@@H]2CO)O[C@H](CO)[C@H](O)[C@@H]1O[C@@H]1O[C@H](CO)[C@H](O)[C@H](O)[C@H]1O; test: (§6) Ratio of Kcat to Km of Activity of Rhodococcus sp. M777 Endoglycoceramidase 2 V269I mutant
[12] = substrate: CCCCCCCCCCCCC/C=C/[C@@H](O)[C@@H](N)CO; test: as §6
[13] = substrate: CC(=O)N[C@H]1[C@H](O[C@@H]2[C@H](O[C@]3(C(=O)O)C[C@H](O)[C@@H](NC(C)=O)[C@H]([C@@H](O)[C@@H](O)CO)O3)[C@@H](O)[C@H](O[C@H]3[C@H](O)[C@@H](O)[C@@H](F)O[C@@H]3CO)O[C@@H]2CO)O[C@H](CO)[C@H](O)[C@@H]1O[C@@H]1O[C@H](CO)[C@H](O)[C@H](O)[C@H]1O; test: (§7) Activity of Rhodococcus sp. M777 Endoglycoceramidase 2 N334S mutant
[14] = substrate: CCCCCCCCCCCCC/C=C/[C@@H](O)[C@@H](N)CO; test: as §7
[15] = substrate: CC(=O)N[C@H]1[C@H](O[C@@H]2[C@H](O[C@]3(C(=O)O)C[C@H](O)[C@@H](NC(C)=O)[C@H]([C@@H](O)[C@@H](O)CO)O3)[C@@H](O)[C@H](O[C@H]3[C@H](O)[C@@H](O)[C@@H](F)O[C@@H]3CO)O[C@@H]2CO)O[C@H](CO)[C@H](O)[C@@H]1O[C@@H]1O[C@H](CO)[C@H](O)[C@H](O)[C@H]1O; test: (§8) Ratio of Kcat to Km of Activity of Rhodococcus sp. M777 Endoglycoceramidase 2 N334S mutant
[16] = substrate: CCCCCCCCCCCCC/C=C/[C@@H](O)[C@@H](N)CO; test: as §8
[17] = substrate: CC(=O)N[C@H]1[C@H](O[C@@H]2[C@H](O[C@]3(C(=O)O)C[C@H](O)[C@@H](NC(C)=O)[C@H]([C@@H](O)[C@@H](O)CO)O3)[C@@H](O)[C@H](O[C@H]3[C@H](O)[C@@H](O)[C@@H](F)O[C@@H]3CO)O[C@@H]2CO)O[C@H](CO)[C@H](O)[C@@H]1O[C@@H]1O[C@H](CO)[C@H](O)[C@H](O)[C@H]1O; test: (§9) Activity of Rhodococcus sp. M777 Endoglycoceramidase 2 A153T D314Y mutant
[18] = substrate: CCCCCCCCCCCCC/C=C/[C@@H](O)[C@@H](N)CO; test: as §9
[19] = substrate: CC(=O)N[C@H]1[C@H](O[C@@H]2[C@H](O[C@]3(C(=O)O)C[C@H](O)[C@@H](NC(C)=O)[C@H]([C@@H](O)[C@@H](O)CO)O3)[C@@H](O)[C@H](O[C@H]3[C@H](O)[C@@H](O)[C@@H](F)O[C@@H]3CO)O[C@@H]2CO)O[C@H](CO)[C@H](O)[C@@H]1O[C@@H]1O[C@H](CO)[C@H](O)[C@H](O)[C@H]1O; test: (§10) Ratio of Kcat to Km of Activity of Rhodococcus sp. M777 Endoglycoceramidase 2 A153T D314Y mutant
[20] = substrate: CCCCCCCCCCCCC/C=C/[C@@H](O)[C@@H](N)CO; test: as §10

B1: Endoglycoceramidase II (Rhodococcus sp), A0ACD6B832 V269I,G370R (protein)
chain: MRRTRLVSLIVTGSLVFGGGVAAAQSSLAASGSGSGSGTALTPSYLKDDDGRSLILRGFNTASSAKSAPDGMPQFTEADLAREYADMGTNFVRFLISWRSVEPAPGVYDQQYLDRVEDRVGWYAERGYKVMLDMHQDVYSGAITPEGNSGNGAGAIGNGAPAWATYMDGLPVEPQPRWELYYIQPGVMRAFDNFWNTTGKHPELVEHYAKAWRAVADRFADNDAVVAYDLMNEPFGGSLQGPAFEAGPLAAMYQRTTDAIRQVDQDTWICVAPQAIGVNQGLPSGLTKIDDPRAGQQRIAYCPHLYPLPLDIGDGHEGLARTLTDVTIDAWRANTAHTARVLGDVPIILGEFGLDTTLPGARDYIERVYRTAREMGAGVSYWSSDPGPWGPYLPDGTQTLLVDTLNKPYPRAVAGTPTEWSSTSDRLQLTIEPDAAITAPTEIYLPEAGFPGDVHVEGADVVGWDRQSRLLTVRTPADSGNVTVTVTPAA
Work on B1 yielded a Km [1] of 890 µM, a kcat [1] of 0.17 s⁻¹ and a Km [2] of 480 µM. For the same protein, the kcat [2] was 0.26 s⁻¹, the kcat/Km [3] was 191 M⁻¹ s⁻¹ and the kcat/Km [4] was 542 M⁻¹ s⁻¹.

B2: Endoglycoceramidase II (Rhodococcus sp), A0ACD6B832 P394S (protein)
chain: B1 chain with I269V, R370G, P394S
For B2, the Km [5] was 690 µM, the kcat [5] was 0.22 s⁻¹ and the Km [6] was 500 µM. For the same protein, the kcat [6] was 0.33 s⁻¹, the kcat/Km [7] was 319 M⁻¹ s⁻¹ and the kcat/Km [8] was 660 M⁻¹ s⁻¹.

B3: Endoglycoceramidase II (Rhodococcus sp), A0ACD6B832 V269I (protein)
chain: B1 chain with R370G
B3 was tested, and the Km [9] was 600 µM, the kcat [9] was 0.13 s⁻¹ and the Km [10] was 810 µM. For the same protein, the kcat [10] was 0.18 s⁻¹, the kcat/Km [11] was 217 M⁻¹ s⁻¹ and the kcat/Km [12] was 222 M⁻¹ s⁻¹.

B4: Endoglycoceramidase II (Rhodococcus sp), A0ACD6B832 N334S (protein)
chain: B1 chain with I269V, N334S, R370G
With B4 the Km [13] was 700 µM, the kcat [13] was 0.13 s⁻¹ and the Km [14] was 680 µM. For the same protein, the kcat [14] was 0.19 s⁻¹, the kcat/Km [15] was 186 M⁻¹ s⁻¹ and the kcat/Km [16] was 279 M⁻¹ s⁻¹.

B5: Endoglycoceramidase II (Rhodococcus sp), A0ACD6B832 A153T,D314Y (protein)
chain: B1 chain with A153T, I269V, D314Y, R370G
Protein B5 has a Km [17] of 270 µM, a kcat [17] of 0.3 s⁻¹ and a Km [18] of 1600 µM. The kcat [18] was 0.64 s⁻¹, the kcat/Km [19] was 1110 M⁻¹ s⁻¹ and the kcat/Km [20] was 407 M⁻¹ s⁻¹.
